Source: the DeepSol protein solubility set

Assay: soluble on expression in E. coli; label from the status in PepcDB or PDB records

With “VTALDWRSALTADEQRSVRALVTATTAVDGVAPVGEQVLRELGQQRTEHLLVAGSRPGGPIIGYLNLSPPRGAGGAMAELVVHPQSRRRGIGTAMARAALAKTAGRNQFWAHGTLDPARATASALGLVGVRELIQMRRPLRDIPEPTIPDGVVIRTYAGTSDDAELLRVNNAAFAGHPEQGGWTAVQLAERRGEAWFDPDGLILAFGDSPRERPGRLLGFHWTKVHPDHPGLGEVYVLGVDPAAQRRGLGQMLTSIGIVSLARRLGGRKTLDPAVEPAVLLYVESDNVAAVRTYQSLGFTTYSVDTAYALAGTDN” as the sequence, how does the “soluble on expression in E. coli” value read?
Its value is “not soluble”.

For “MSKTAAITIDTPGADDFEPHRRHLYGLAYRMLGSWSEAEDIVQETWLRWREIDPATLDNARAFLSRIATRLCLDVLKSARVRRQVYVGPWLPEPLPDAQAYAGAAPGEIAHDVSVALMLALERLSASERAAFLLHDVFDVPFAEIAGTLGRTEAGCRQLAARARNRVRESRPRFAVEESEGIRLARAFIDAAQHGDVDVLRQLLADDAVLHSDGGGKKLAFMRPILGRANIVRAFAGLARKGQSDLSSVRIVQLNGMPAIYGIERDGLPRTISLGVCGGRIVRVYIMRNPDKLAHLARFTG”, which “soluble on expression in E. coli” value is on record?
The value was “not soluble”.

For “MEPVFKEPSPKKKRVENPPENAPDAPKKPQLKHESEFLRSIPSSSQYEKSFMHRDTISHVIATKTDFIITASVDGHLKFWKKKHSEGVEFVKHFRCHLSEFSHICANIDGTLLATVCEADKSVKVFDIENFDMINMIKLDFPPKTANWVHQSNDPIAHLAIGAADSGKIIVVDGKATAAPICIKDKLHSTPVKIIEYSQSLDIIVSIDESGMIECWNGERGDFQFPETKLTWEYKLETDLYDFVKAKTIPVCATFDPSGLKLATFAEDRKIRIFNVKTGKLAQLIDETTQKYHCEAKENKNYGLQHMEWSRRLASEKEMDKDKKNSLKYTKICFDQSGNFLLYPTPIGVKVFNLVTNEVSRTIGRDEAIRFVAVSLCNALPDIRQKLQGAAITLETAAADNPTLNRKTDPDPLMVCCALRKNRFYLFTNTEPYNVEDDEGNPSVSGRDVFNERPKKEDLLTALDTEGGEKVLNKEAIIHTSFGDITIRLFGDECPKTVENFCTHSRRGYYNGLTFHRVIKSFMIQTGDPSGKGTGGESIWGEDFEDEFHPRLRHDKPFKVSMANAGGGNTNGSQFFITVCPADWLDGKNTLFGEVTAGMSVVQRINQVSTFERSGRPRESIQIMSISLK”, which “soluble on expression in E. coli” value is on record?
The value was “not soluble”.

Which “soluble on expression in E. coli” value does the source give for “KEMRQQVPATIKGPTEEYEYYMELMALLNNLLETARSRGFKFLDSHIEAPEQSSIFLMYPLVSEDHRLISFITDNLRLMAMGQMSPHELEGLLEQEIEAIQNELLLPSRSLQRTAE” here?
The value was “not soluble”.

With “MLMKVAEFERLFRQAAGLDVDKNDLKRVSDFLRNKLYDLLAVAERNAKYNGRDLIFEPDLPIAKGLQETLQEFRRMDTALELKPVLDALAALPPLDLEVAEDVRNLLPELAGALVVAYARVLKELDPALKNPQTEHHERAERVFNLLL” as the sequence, how does the “soluble on expression in E. coli” value read?
The value was “soluble”.

Which “soluble on expression in E. coli” value does the source give for “MNIFAILNHMGVFFKEEPVRQLHAALEKAGYEVVYPVDDKDLIKMIEMNPRICGVLFDWDKYSLELCERISQINEKLPVHAFANEQSTLDISLTDLRLNVSFFEYALGMADDI” here?
The value was “not soluble”.

With “MLEAEVVALKDLIEVAGAVVSTLDLDTVLRHILTSAMRFAETPAGSIALYDGYRNDLTLHAHEGLTPEFVKTERWSVQPGGLTEQVLTRGEILFVNDTADTSFFHNPTALNEGIRSLICVPLMMQNRIVGILYLDDFVPRDFDKERMKLLSVLASFAAMAIDNAQLHARTR” as the sequence, how does the “soluble on expression in E. coli” value read?
The value was “not soluble”.

With “MAHHHHHHMTHTGAAAASGASASTLSSQSTAAVASDDAFSEQHQGQKQRNLLRCFALADLLGVSPTVVQQLANAAATPSSSLHHARNTSRASSHCSTESDPVIRAYQLEQILVAAVVKQLFDRCCDPDQSIQNGGSVDAGQPAASSVSTTARQPARKHQPSSLKAPPWSAALSEPRRACTSPQQPDGERLLPSVLSSPQGVARVDALHASFLPLLLVALLQRVSEGSGGDTQATDATVPRQTPDTNAAASNTSAAVFSLRQQRSFRTALHQLLPLYTPLLLQRRRAARAVVSSVVVALQEYPCSGHDDGESTTEEEESRKRIQRLVHQGLCCSEVKQWLHAARLLSDTLVACLSHVSPRASIAATAPPPAIRRRRGGRGRFDGGAVDTGDGRGVAECGRDAPPRWRVGGGGAASVRSLVVGIRYERFEWCRAARARRQHPCKCWGPNEPTRAVHHHHHCRGARACRGHVYRRRGDVRRHLAPRGWPFWRTAAAATVELCSCWWSHSADTTRCTDTLSR” as the sequence, how does the “soluble on expression in E. coli” value read?
The value was “not soluble”.

Which “soluble on expression in E. coli” value does the source give for “GAMEDKVDAIREAIARNPQEIFQYVRLSQVKRDDKVLGYRVSPGKDPVLFESIGLQDGDMAVALNGLDLTDPNVMNTLFQSMNEMTEMSLTVERDGQQHDVYIQF” here?
The value was “soluble”.

With “MGSDKIHHHHHHMHTELNHVMPWRIEDIDLTRIDRQKAVANEDLLLLLCASSFIESGSDLYTANLSTFFNGDPEVSAWLNQEWEPEELQHGRALKTYIAYVWPEFDWDTAFRNFMEEYSLTCSVEDFEKTRALEMVARCVVETGTATLYRAIGECSDEPVLKQITDNIRTDEVRHYKHFFKYFKKYNKIEGNGRLAVLGALMRRVMEIKNEDSEIALRHVFAVRYPERVHDSAYNRERAARINALVRRNLSADMCVKMLLKPLDLPARIQPGVHYPLAKITQHVFFR” as the sequence, how does the “soluble on expression in E. coli” value read?
Its value is “not soluble”.

Which “soluble on expression in E. coli” value does the source give for “MSRGSSAGFDRHITIFSPEGRVYQVEYAFKAINSTNLTAVAVKGADAAVIAVQKRVPDSLIVADTVTSVYQISQSVGCCAIGMIPDAKFQIKRAQGEAASWKYKNGYDMPCELLAKKMADLNQYYTQNAEMRSLGCALLFISYDDEKGPEVYRVDPAGYYRGMKGVSVGVKQLPATSFLEKKIKKKSELTSTEAIELAIEALQTSLGIDVRSKDLEVVVVTKDNSKFTKLTSDQVEHHLNQIANRD” here?
Its value is “not soluble”.

Which “soluble on expression in E. coli” value does the source give for “GMVKDKNDVGPKTVAILGAGGKMGARITRKIHDSAHHLAAIEIAPEGRDRLQGMGIPLTDGDGWIDEADVVVLALPDNIIEKVAEDIVPRVRPGTIVLILDAAAPYAGVMPERADITYFIGHPCHPPLFNDETDPAARTDYHGGIAKQAIVCALMQGPEEHYAIGADICETMWSPVTRTHRVTTEQLAILEPGLSEMVAMPFVETMVHAVDECADRYGIDRQAALDFMIGHLNVEIAMWFGYSPKVPSDAALRLMEFAKDIVVKEDWREALNPAKVKQAAELIAGK” here?
The value was “soluble”.

Which “soluble on expression in E. coli” value does the source give for “MAPEDGSLDRWQWYPKEKGEYSALYPRSWYEYKDVFKSELICEQFSPVWGGNYQESSYPLAVFDWTVHNPTDKPITLSIMLTWQNSVGWFTNAIKSPTVKLRDDGSPEYEYQPRWGDSTGNFNQWIQDGFRVGCLFNRVQPHEALREGEGQMCIASVSNPSVEVFYHNRWNPSGDGADVWDWFAGNGSLPDIQDETAAEPGEQIAGAICLRFTVRPGKTKKIPFLLAWDLPITEFAQGVTYYRRYTDFYGRNGKNVWSMIRTALKHSDTWRKKIEAWQAPILENPRLPDWLKMSLFNELYLLTQGGTLWTAATENDPVGQFGVCECMDYRWYESLDVRLYGSFGLLMHWPKLEQAVMLAFARAIPTEDPKERVIGYNLSLAPRKVKNATPHDLGAPNEHPWERSNYTAYQDCNLWKDLGSDFVLLVYRDFLLLPDADGEFLGECWPSIVAALDYLKGFDLDNDGIPENSGAPDQTFDDWRLQGISAYCGGLWIAALEAALVMGQYLLENPPQQTDLDAMEIQTAIARYETWLAQARSLYQDTLWNGEYYNLDSQSGSKVVMADQLCGQFYARLLNLPDVVEHHYAEKALAKVYDTCFLKFAHGELGAANGLLPDGSPQNPNDTHPLEVWTGINFGLAAFLIQMGMKEEALKMTETVVNQVYNNGLQFRTPEAITAVGTFRASHYLRAMAIWAVYGLLEGFSNLPIAPADDEVPTSDFYLEHHHHHH” here?
Its value is “not soluble”.

With “MSLNPSESRSIAALREIVESARPLSYIRSSEEQRVERLLKDAAQRFFSTKVPVWTWSLTEGLRCDDGAVDASASDPRAALDFIAAYQGPALFHLKDFHEPLRERADIRRRLRDLYGACFDQGKFVVISSPVRYIPEELGRSIMYIELTLPDLAELIGFLREEVHAVKALGGSADTDDATLTQIARALQGLTLDESRHAIRRALAAGGGLGADSLPALYEEKRLLVNRTGMIQYVADGTQIASVGGLEIMKKWLMERRELFQLRDSISAEIVPKGVLIMGVSGCGKSLSVKAIASAFGLPLYRIDMTEIFSGRHGSAEGAFVSACRMLEQIAPAVVWFDEIEMGVNSTESAGEQGRIFAFFLTWMQEKTSGLFVAATANRIDLLPAEMTRKGRFDEIFFVDLPLDDERVEIFRIHLERRGIDTTPFDLTRLIKITKGWVGAEVEQCVVSALTTAHLDNREVTVEDLLRAAGKIVPLSKTMKEQVDHIRSWAYNRAVRASEGHHHHHH” as the sequence, how does the “soluble on expression in E. coli” value read?
The value was “soluble”.
